# B1: Tissue-type plasminogen activator, P00750 (parent)
# chain: MDAMKRGLCCVLLLCGAVFVSPSQEIHARFRRGARSYQVICRDEKTQMIYQQHQSWLRPVLRSNRVEYCWCNSGRAQCHSVPVKSCSEPRCFNGGTCQQALYFSDFVCQCPEGFAGKCCEIDTRATCYEDQGISYRGTWSTAESGAECTNWNSSALAQKPYSGRRPDAIRLGLGNHNYCRNPDRDSKPWCYVFKAGKYSSEFCSTPACSEGNSDCYFGNGSAYRGTHSLTESGASCLPWNSMILIGKVYTAQNPSAQALGLGKHNYCRNPDGDAKPWCHVLKNRRLTWEYCDVPSCSTCGLRQYSQPQFRIKGGLFADIASHPWQAAIFAKHRRSPGERFLCGGILISSCWILSAAHCFQERFPPHHLTVILGRTYRVVPGEEEQKFEVEKYIVHKEFDDDTYDNDIALLQLKSDSSRCAQESSVVRTVCLPPADLQLPDWTECELSGYGKHEALSPFYSERLKEAHVRLYPSSRCTSQHLLNRTVTDNMLCAGDTRSGGPQANLHDACQGDSGGPLVCLNDGRMTLVGIISWGLGCGQKDVPGVYTKVTNYLDWIRDNMRP
# Variants of: B1
# Conditions: Homo sapiens; pH 8; Thermal; DSC; Tris - Oac/100mM NaOAc 50 mM; transition: 2; structure 1PML; whole UniProt chain shown
Variant,Tm [°C],"change of melting temperature, mutant - wild type (higher = more stable) [°C]"
Y290F,81.5,14.8

# Source: FireProtDB (doi:10.1021/bi00178a007)
